Target: the molecule itself
Assay: negative-stain electron microscopy

B1: HAdV-5 penton base protein, recombinant, soluble (natural protein)
chain: MRRAAMYEEGPPPSYESVVSAAPVAAALGSPFDAPLDPPFVPPRYLRPTGGRNSIRYSELAPLFDTTRVYLVDNKSTDVASLNYQNDHSNFLTTVIQNNDYSPGEASTQTINLDDRSHWGGDLKTILHTNMPNVNEFMFTNKFKARVMVSRLPTKDNQVELKYEWVEFTLPEGNYSETMTIDLMNNAIVEHYLKVGRQNGVLESDIGVKFDTRNFRLGFDPVTGLVMPGVYTNEAFHPDIILLPGCGVDFTHSRLSNLLGIRKRQPFQEGFRITYDDLEGGNIPALLDVDAYQASLKDDTEQGGGGAGGSNSSGSGAEENSNAAAAAMQPVEDMNDHAIRGDTFATRAEEKRAEAEAAAEAAAPAAQPEVEKPQKKPVIKPLTEDSKKRSYNLISNDSTFTQYRSWYLAYNYGDPQTGIRSWTLLCTPDVTCGSEQVYWSLPDMMQDPVTFRSTRQISNFPVVGAELLPVHSKSFYNDQAVYSQLIRQFTSLTHVFNRFPENQILARPPAPTITTVSENVPALTDHGTLPLRNSIGGVQRVTITDARRRTCPYVYKALGIVSPRVLSSRTF
notes: also called 5PB; source: Sf9 (baculovirus, pFastBac HT A), purified (Ni-NTA agarose, HiTrap Q-sepharose)
B1 was tested, and the “stoichiometry N” value was 5.
